Measured values from patent US20150010574A1 (Boehringer Ingelheim, published 2015).
One block for each binder: values may come before it.

Assays:
human IGF-2 [1] = biological target: T1, human IGF-2 (human, UniProt P01344 25-91); assay: cell-based or functional assay
human IGF-1 [2] = biological target: T2, human IGF-1 (human, UniProt P05019 49-118); assay: cell-based or functional assay
human IGF-2 [3] = biological target: T1, human IGF-2; assay: cell-based or functional assay; remark: listed apart in the source
human IGF-1 [4] = biological target: T2, human IGF-1; assay: electrochemiluminescence-based equilibrium titration (BioVeris)
human IGF-2 [5] = biological target: T1, human IGF-2; assay: cell-based or functional assay; remark: listed apart in the source
human IGF-1 [6] = biological target: T2, human IGF-1; assay: cell-based or functional assay; remark: listed apart in the source
human insulin = biological target: T3, human insulin (human, UniProt P01308 25-54; P01308 90-110); assay: direct ELISA, human insulin coated at 3 ug/ml, anti-human IgG-HRPO, OD 450 nm
T3 construct: Bought (Roche); coated at 3 ug/ml in the ELISA
Description: Fully human IgG1 antibodies that bound with high affinity to IGF-1 are also tested for binding to human IGF-1 in direct immunosorbent assays (ELISA). Assays are performed by coating human IGF-1 (R&D Systems, No. 291-G1) to 96-well Maxisorb plates at a concentration of 0.5 μg/ml overnight at 4° C. (100 μl/well). Coating buffer alone is used as a control for unspecific binding. Wells are then washed once with washing buffer (1×TBS-T) and residual binding sites are blocked with 200 μl blocking buffer for 1 hour at room temperature on an orbital shaker followed by a further wash cycle. Serial three-fold dilutions of each test antibody in blocking buffer are prepared directly on the coated plates. […] Blocking buffer alone is used as a positive control. The plates are then incubated for 2 hours at room temperature with agitation. After three wash cycles 100 μl/well of HRPO-conjugated anti-human IgG secondary reagent (Jackson ImmunoResearch Inc.) diluted in blocking buffer is added to all wells. After 2 hours incubation at room temperature with agitation the plates are washed three-times and 100 μl/well of TMB substrate solution (equal amounts of solution A and B) are pipetted into all wells. The plates are incubated for 10-20 min at RT with agitation and then the reaction is stopped by addition of 100 μl/well 1 M phosphoric acid. The absorbance is measured at a wavelength of 450 nm (reference 650 nm).

rat IGF-2 [7] = biological target: T4, rat IGF-2 (rat, UniProt P01346 25-91); assay: SPR (Biacore 3000), antibody captured by anti-human Fc, IGF antigen flowed, 25 C
T4 construct: Bought recombinant protein
Description: (§1) The sensor chip is coated with approximately 1000 RU of the reference antibody in flow cell 1 and approximately 1000 RU of a rabbit-anti-human Fc-gamma-specific antibody in flow cell 2 using the coupling reagents from an amine coupling kit. A target of 1000 RU is set in the surface preparation wizard of the Biacore 3000 software at a flow rate of 5 μl/min Running buffer used is HBS-EP. […] Blank runs using running buffer only are run in-between. A blank run curve is subtracted from each binding curve before affinity analysis. Data evaluation is performed using the BIAevaluation software (version 4.1, Biacore, Freiburg, Germany). The dissociation and association phases of the kinetics are fitted separately. For the separate fit of the kdiss values a time-frame of the initial 200-300 seconds in the dissociation phase is used (range of steady decrease of signal). For the separate fit of the kₐₛₛ values, initial time frames of approx 100 seconds are used (range of steady increase of signal) and for calculation the individual kdiss values are used with the 1:1 Langmuir association model. The average values with the standard deviations of the kinetic data together with the corresponding dissociation (KD) and association (KA) constants are calculated.

mouse IGF-2 [8] = biological target: T5, mouse IGF-2 (mouse, UniProt P09535 25-91); assay: as above
T5 construct: Bought recombinant protein; also called murine IGF-2
Description: as §1

human IGF-2 [9] = biological target: T1, human IGF-2; assay: as above
Description: as §1

human IGF-1 [10] = biological target: T2, human IGF-1; assay: as above
Description: as §1

rat IGF-1 [11] = biological target: T6, rat IGF-1 (rat, UniProt P08025 49-118); assay: as above
T6 construct: Bought recombinant protein
Description: as §1

mouse IGF-1 [12] = biological target: T7, mouse IGF-1 (mouse, UniProt P05017 49-118); assay: as above
T7 construct: Bought recombinant protein; also called murine IGF-1
Description: as §1

rat IGF-2 [13] = biological target: T4, rat IGF-2; assay: direct ELISA, rat IGF-2 coated on the plate, anti-human IgG-HRPO, OD 450 nm
Description: (§2) Fully human IgG1 antibodies that bound with high affinity to IGF-1 are also tested for binding to human IGF-1 in direct immunosorbent assays (ELISA). Assays are performed by coating human IGF-1 (R&D Systems, No. 291-G1) to 96-well Maxisorb plates at a concentration of 0.5 μg/ml overnight at 4° C. (100 μl/well). Coating buffer alone is used as a control for unspecific binding. Wells are then washed once with washing buffer (1×TBS-T) and residual binding sites are blocked with 200 μl blocking buffer for 1 hour at room temperature on an orbital shaker followed by a further wash cycle. Serial three-fold dilutions of each test antibody in blocking buffer are prepared directly on the coated plates. […] Blocking buffer alone is used as a positive control. The plates are then incubated for 2 hours at room temperature with agitation. After three wash cycles 100 μl/well of HRPO-conjugated anti-human IgG secondary reagent (Jackson ImmunoResearch Inc.) diluted in blocking buffer is added to all wells. After 2 hours incubation at room temperature with agitation the plates are washed three-times and 100 μl/well of TMB substrate solution (equal amounts of solution A and B) are pipetted into all wells. […] The absorbance is measured at a wavelength of 450 nm (reference 650 nm).

mouse IGF-1 [14] = biological target: T7, mouse IGF-1; assay: direct ELISA, mouse IGF-1 coated on the plate, anti-human IgG-HRPO, OD 450 nm
Description: as §2

rat IGF-1 [15] = biological target: T6, rat IGF-1; assay: direct ELISA, rat IGF-1 coated on the plate, anti-human IgG-HRPO, OD 450 nm
Description: as §2

mouse IGF-2 [16] = biological target: T5, mouse IGF-2; assay: direct ELISA, mouse IGF-2 coated on the plate, anti-human IgG-HRPO, OD 450 nm
Description: as §2

T2 sequence (P05019 49-118): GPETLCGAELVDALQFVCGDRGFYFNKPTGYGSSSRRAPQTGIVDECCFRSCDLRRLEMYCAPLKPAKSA
T4 sequence (P01346 25-91 limits assumed): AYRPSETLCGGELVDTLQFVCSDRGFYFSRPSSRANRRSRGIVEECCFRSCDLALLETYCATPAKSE
T5 sequence (P09535 25-91 limits assumed): as the sequence (P01346 25-91 limits assumed) above, with R3G, S5G counted along it
T3 sequence (P01308 25-54 limits assumed, chain 1 of 2): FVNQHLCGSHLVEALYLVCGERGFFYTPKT
T3 sequence (P01308 90-110 limits assumed, chain 2 of 2): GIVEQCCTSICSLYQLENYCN
T6 sequence (P08025 49-118 limits assumed): as the sequence (P05019 49-118) above, with D20P, S35I, A67T counted along it
T7 sequence (P05017 49-118 limits assumed): as the sequence (P05019 49-118) above, with D20P, S35I, A67T, S69A counted along it
T1 sequence (P01344 25-91 limits assumed): as the sequence (P01346 25-91 limits assumed) above, with S22G, S32A, A35V, N36S counted along it

IC50 of IGF-2 (100 ng/mL) induced IGF-1R phosphorylation, cell based ELISA (human IGF-2 [1]): 1.12 µg/mL | IC50 of IGF-1 (20 ng/mL) induced IGF-1R phosphorylation, cell based ELISA (human IGF-1 [2]): 0.09 µg/mL | IC50 of IGF-2 (100 ng/mL) induced IR-A phosphorylation, cell based ELISA (human IGF-2 [3]): 0.82 µg/mL | Kd (human IGF-1 [4]): 0.13 nM | IC50 of IGF-2 induced COLO 205 cell proliferation (human IGF-2 [5]): 0.632 µg/mL | IC50 of IGF-2 induced MCF7 cell proliferation (human IGF-2 [5]): 0.0812 µg/mL | IC50 of IGF-1 induced COLO-205 cell proliferation (human IGF-1 [6]): 0.165 µg/mL | IC50 of IGF-1 induced MCF7 cell proliferation (human IGF-1 [6]): 0.0386 µg/mL | binding result (human insulin): no binding (tested: 50 ng/mL) | Kd (rat IGF-2 [7]): 2.41 nM | koff (rat IGF-2 [7]): 0.00613 s⁻¹ | kon (rat IGF-2 [7]): 2.56e+06 M⁻¹ s⁻¹ | Kd (mouse IGF-2 [8]): 13.4 nM | koff (mouse IGF-2 [8]): 0.011 s⁻¹ | kon (mouse IGF-2 [8]): 868000 M⁻¹ s⁻¹ | Kd (human IGF-2 [9]): 0.913 nM | koff (human IGF-2 [9]): 0.00353 s⁻¹ | kon (human IGF-2 [9]): 3.97e+06 M⁻¹ s⁻¹ | Kd (human IGF-1 [10]): 0.07 nM | koff (human IGF-1 [10]): 0.000301 s⁻¹ | kon (human IGF-1 [10]): 4.74e+06 M⁻¹ s⁻¹ | Kd (rat IGF-1 [11]): 0.07 nM | koff (rat IGF-1 [11]): 0.000253 s⁻¹ | kon (rat IGF-1 [11]): 3.81e+06 M⁻¹ s⁻¹ | Kd (mouse IGF-1 [12]): 0.33 nM | koff (mouse IGF-1 [12]): 0.000323 s⁻¹ | kon (mouse IGF-1 [12]): 1e+06 M⁻¹ s⁻¹
B1: antibody 60833 (antibody, human IgG1, lambda, V domains shown)
VH: QVELVESGGGLVQPGGSLRLSCAASGFTFTSYWMSWVRQAPGKGLELVSSITSYGSFTYYADSVKGRFTISRDNSKNTLYLQMNSLRAEDTAVYYCARNMYTHFDSWGQGTLVTVSS
VL: DIVLTQPPSVSGAPGQRVTISCSGSSSNIGSNSVSWYQQLPGTAPKLLIYDNSKRPSGVPDRFSGSKSGTSASLAITGLQSEDEADYYCQSRDTYGYYWVFGGGTKLTVLG
notes: Fully human IgG1 with Ig lambda light chain

Kd (human IGF-1 [4]): 0.18 nM | binding result (rat IGF-2 [13]): binds | binding result (mouse IGF-1 [14]): binds | IC50 of IGF-2 induced COLO 205 cell proliferation (human IGF-2 [5]): 0.576 µg/mL | IC50 of IGF-2 induced MCF7 cell proliferation (human IGF-2 [5]): 0.0782 µg/mL | IC50 of IGF-1 induced COLO-205 cell proliferation (human IGF-1 [6]): 0.135 µg/mL | IC50 of IGF-1 induced MCF7 cell proliferation (human IGF-1 [6]): 0.0241 µg/mL | binding result (human insulin): no binding (tested: 50 ng/mL) | binding result (rat IGF-1 [15]): binds | binding result (mouse IGF-2 [16]): binds
B2: antibody 60814 (antibody, human IgG1, lambda, V domains shown)
VH: QVELVESGGGLVQPGGSLRLSCAASGFTFSNYWMHWVRQAPGKGLEWVSGISGWSSWTYYADSVKGRFTISRDNSKNTLYLQMNSLRAEDTAVYYCARFGIDAYTKVYFDYWGQGTLVTVSS
VL: DIELTQPPSVSVAPGQTARISCSGDNIPLKYVSWYQQKPGQAPVLVIHDDNKRPSGIPERFSGSNSGNTATLTISGTQAEDEADYYCSSWDTLDIFNVFGGGTKLTVLG
notes: as for B1

Kd (human IGF-1 [4]): 0.19 nM | binding result (rat IGF-2 [13]): binds | binding result (mouse IGF-1 [14]): binds | IC50 of IGF-2 induced COLO 205 cell proliferation (human IGF-2 [5]): 0.101 µg/mL | IC50 of IGF-2 induced MCF7 cell proliferation (human IGF-2 [5]): 0.0408 µg/mL | IC50 of IGF-1 induced COLO-205 cell proliferation (human IGF-1 [6]): 0.217 µg/mL | IC50 of IGF-1 induced MCF7 cell proliferation (human IGF-1 [6]): 0.054 µg/mL | binding result (human insulin): no binding (tested: 50 ng/mL) | binding result (rat IGF-1 [15]): binds | binding result (mouse IGF-2 [16]): binds
B3: antibody 60819 (antibody, human IgG1, lambda, V domains shown)
VH: QVELVESGGGLVQPGGSLRLSCAASGFTFSNYWMHWVRQAPGKGLEWVSGISGWSSWTYYADSVKGRFTISRDNSKNTLYLQMNSLRAEDTAVYYCARFGIDAYTKVYFDYWGQGTLVTVSS
VL: DIELTQPPSVSVAPGQTARISCSGDNIPLKYVSWYQQKPGQAPVLVIHDDNKRPSGIPERFSGSNSGNTATLTISGTQAEDEADYYCQSYDYFPKFVVFGGGTKLTVLG
notes: as for B1
